Measurements from the supplement of paper PMC7877785.
± gives the uncertainty stated by the source.

Experiment: self-splicing fitness, log relative to wild type (ln ratio); higher = more splicing; Tetrahymena group I intron in knt gene, E. coli kanamycin selection, DiMSum; sequences stand for … in CUCUCU…GGAGGGAAAAGUUAUCAGGCAUGCACCUGGUAGCUAGUCUUUAAACCAAUAGAUUGCAUCGGUUUAAAAGGCAAGACCGUCAAAUUGCGGGAAAGGGGUCAACAGCCGUUCAGUACCAAGUCUCAGGGGAAACUUUGAGAUGGCCUUGCAAAGGGUAUGGUAAUAAGCUGACGGACAUGGUCCUAACCACGCAGCCAAGUCCUAAGUCAACAGAUCUUCUGUUGAUAUGGAUGCAGUUCACAGACUAAAUGUCGGUCGGGGAAGAUGUAUUCUUCUCAUAAGAUAUAGUCGGACCUCUCCUUAAUGGGAGCUAGCGGAUGAAGUGAUGCAACACUGGAGCCGCUGGGAACUAAUUUGUAUGCGAAAGUAUAUUGAUUAGUUUUGGAGUACUCGUGGUCG
Outline: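 Fitness was computed with DiMSum as the error-weighted combination of replicate fold changes, kanamycin versus none, each normalised to wild type. The library randomised all eight intron nucleotides of the P1ex region, with the intron placed in the knt kanamycin-resistance gene on pET-22b(+) in E. coli BL21(DE3). Six replicate transformations were grown overnight at 37°C or 30°C on LB agar with or without 25 μg/mL kanamycin, plus 100 μg/mL carbenicillin, 50 μM IPTG and 0.2% rhamnose. Pooled colonies were amplicon-sequenced on an Illumina HiSeq 2500.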

CUUGAGCAAUAUUACGUCGG
self-splicing fitness (ln) (30 °C): -2.62 ± 0.11
self-splicing fitness (ln) (37 °C): -1.04 ± 0.12

CUUGAGCAAUAUUACGUGCG
self-splicing fitness (ln) (30 °C): -2.22 ± 0.13
self-splicing fitness (ln) (37 °C): -0.809 ± 0.14

CUUGAGCAAUAUUACGUGGC
self-splicing fitness (ln) (37 °C): -2.41 ± 0.31

CUUGAGCAAUAUUACGUUCU
self-splicing fitness (ln) (30 °C): -2.75 ± 0.41
self-splicing fitness (ln) (37 °C): -3.71 ± 0.42

CUUGAGCAAUAUUACGUUUU
self-splicing fitness (ln) (30 °C): -3.92 ± 0.28
self-splicing fitness (ln) (37 °C): -3.44 ± 0.3

CUUUAGCAAUAUUACGAACA
self-splicing fitness (ln) (30 °C): -3.07 ± 0.41

CUUUAGCAAUAUUACGAAUC
self-splicing fitness (ln) (30 °C): -1.01 ± 0.45

CUUUAGCAAUAUUACGACGA
self-splicing fitness (ln) (37 °C): -1.82 ± 0.24

CUUUAGCAAUAUUACGAGCA
self-splicing fitness (ln) (30 °C): -3.14 ± 0.25
self-splicing fitness (ln) (37 °C): -3.05 ± 0.3

CUUUAGCAAUAUUACGAUGG
self-splicing fitness (ln) (30 °C): -1.01 ± 0.1
self-splicing fitness (ln) (37 °C): -0.752 ± 0.13

CUUUAGCAAUAUUACGAUUA
self-splicing fitness (ln) (37 °C): -1.92 ± 0.31

CUUUAGCAAUAUUACGCAAC
self-splicing fitness (ln) (30 °C): -1.73 ± 0.24

CUUUAGCAAUAUUACGCAGA
self-splicing fitness (ln) (37 °C): -2.09 ± 0.3

CUUUAGCAAUAUUACGCCCU
self-splicing fitness (ln) (30 °C): -3.13 ± 0.38
self-splicing fitness (ln) (37 °C): -3.23 ± 0.25

CUUUAGCAAUAUUACGCCUA
self-splicing fitness (ln) (30 °C): -3.11 ± 0.3
self-splicing fitness (ln) (37 °C): -1.73 ± 0.3

CUUUAGCAAUAUUACGCGGA
self-splicing fitness (ln) (30 °C): -2.48 ± 0.27
self-splicing fitness (ln) (37 °C): -2.81 ± 0.32

CUUUAGCAAUAUUACGCUUA
self-splicing fitness (ln) (30 °C): -3.33 ± 0.37
self-splicing fitness (ln) (37 °C): -3.35 ± 0.4

CUUUAGCAAUAUUACGGCAG
self-splicing fitness (ln) (30 °C): -0.944 ± 0.12
self-splicing fitness (ln) (37 °C): -0.552 ± 0.14

CUUUAGCAAUAUUACGGGGC
self-splicing fitness (ln) (30 °C): -3.44 ± 0.28
self-splicing fitness (ln) (37 °C): -2.54 ± 0.38

CUUUAGCAAUAUUACGGGGU
self-splicing fitness (ln) (30 °C): -3.02 ± 0.24
self-splicing fitness (ln) (37 °C): -2.94 ± 0.27

CUUUAGCAAUAUUACGGUAU
self-splicing fitness (ln) (30 °C): -4.49 ± 0.34
self-splicing fitness (ln) (37 °C): -2.4 ± 0.24

CUUUAGCAAUAUUACGGUGA
self-splicing fitness (ln) (37 °C): -2.08 ± 0.3

CUUUAGCAAUAUUACGUAUA
self-splicing fitness (ln) (30 °C): -3.57 ± 0.27
self-splicing fitness (ln) (37 °C): -2.38 ± 0.49

CUUUAGCAAUAUUACGUCGA
self-splicing fitness (ln) (37 °C): -1.96 ± 0.48

CUUUAGCAAUAUUACGUGAC
self-splicing fitness (ln) (30 °C): -1.42 ± 0.19
self-splicing fitness (ln) (37 °C): -1.53 ± 0.29

CUUUAGCAAUAUUACGUGUG
self-splicing fitness (ln) (30 °C): -1.6 ± 0.094
self-splicing fitness (ln) (37 °C): -0.61 ± 0.08

CUUUAGCAAUAUUACGUUGA
self-splicing fitness (ln) (37 °C): -3.01 ± 0.35

CUUUAGCAAUAUUACGUUUG
self-splicing fitness (ln) (30 °C): -2.43 ± 0.17
self-splicing fitness (ln) (37 °C): -1.5 ± 0.17

GAAAAGCAAUAUUACGAAUA
self-splicing fitness (ln) (30 °C): -1.57 ± 0.13
self-splicing fitness (ln) (37 °C): -1.19 ± 0.1

GAAAAGCAAUAUUACGAGGU
self-splicing fitness (ln) (30 °C): -3.97 ± 0.14
self-splicing fitness (ln) (37 °C): -2.92 ± 0.13

GAAAAGCAAUAUUACGAGUA
self-splicing fitness (ln) (30 °C): -3.92 ± 0.42
self-splicing fitness (ln) (37 °C): -2.44 ± 0.2

GAAAAGCAAUAUUACGAUAA
self-splicing fitness (ln) (30 °C): -1.58 ± 0.081
self-splicing fitness (ln) (37 °C): -0.197 ± 0.091

GAAAAGCAAUAUUACGAUGC
self-splicing fitness (ln) (30 °C): -0.709 ± 0.08
self-splicing fitness (ln) (37 °C): -0.503 ± 0.1

GAAAAGCAAUAUUACGCACG
self-splicing fitness (ln) (30 °C): -0.543 ± 0.09
self-splicing fitness (ln) (37 °C): -0.904 ± 0.12

GAAAAGCAAUAUUACGCACU
self-splicing fitness (ln) (30 °C): -0.498 ± 0.098
self-splicing fitness (ln) (37 °C): 0.475 ± 0.1

GAAAAGCAAUAUUACGCAUG
self-splicing fitness (ln) (30 °C): -1.12 ± 0.079
self-splicing fitness (ln) (37 °C): -0.337 ± 0.1

GAAAAGCAAUAUUACGCAUU
self-splicing fitness (ln) (30 °C): -3.24 ± 0.17
self-splicing fitness (ln) (37 °C): -0.376 ± 0.11

GAAAAGCAAUAUUACGCGUU
self-splicing fitness (ln) (30 °C): -2.98 ± 0.13
self-splicing fitness (ln) (37 °C): -1.18 ± 0.12

GAAAAGCAAUAUUACGCUAC
self-splicing fitness (ln) (30 °C): -2.67 ± 0.27
self-splicing fitness (ln) (37 °C): -2.37 ± 0.29

GAAAAGCAAUAUUACGCUAG
self-splicing fitness (ln) (30 °C): -1.8 ± 0.076
self-splicing fitness (ln) (37 °C): -1.57 ± 0.099

GAAAAGCAAUAUUACGCUGA
self-splicing fitness (ln) (30 °C): -1.91 ± 0.24
self-splicing fitness (ln) (37 °C): -1.65 ± 0.21

GAAAAGCAAUAUUACGCUGC
self-splicing fitness (ln) (30 °C): -3.12 ± 0.24
self-splicing fitness (ln) (37 °C): -1.61 ± 0.39
